Test results as given in US20190241648A1 (STATEN BIOTECHNOLOGY B V, published 2019).
Ends that are not written are not given here.

Legend:
Experiment in all cases: cyclic peptide substitution array
ApoC3 peptide W65C = molecular target: T1, ApoC3 peptide W65C (human, not fully specified; cyclic (thioether))
T1 peptide: DKFSEFCDLDPEV
Method in brief: (§1)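 Peptide microarrays incubated with antibody samples, then stained with goat anti-human IgG (Fc) DyLight680 and anti-HA DyLight800 control antibodies, scanned at intensity 7/7 (red/green). Secondary-only pre-stain checked background binding; framing HA peptides served as quality control; substitution effects read as changes in spot intensity.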

ApoC3 peptide D66C = molecular target: T2, ApoC3 peptide D66C (human, not fully specified; cyclic (thioether))
T2 peptide: DKFSEFWCLDPEV
Method in brief: as §1

ApoC3 peptide S62E = molecular target: T3, ApoC3 peptide S62E (human, not fully specified; cyclic (thioether))
T3 peptide: DKFEEFWDLDPEV
Method in brief: as §1

ApoC3 peptide L67E = molecular target: T4, ApoC3 peptide L67E (human, thioether (positions not given here); not fully specified (bridges); also: thioether between a C-terminal Cys side chain and a modified N-terminus, the Cys is not in the chain)
T4 peptide: DKFSEFWDEDPEV
Method in brief: as §1

ApoC3 peptide P69E = molecular target: T5, ApoC3 peptide P69E (human, not fully specified; cyclic (thioether))
T5 peptide: DKFSEFWDLDEEV
Method in brief: as §1

ApoC3 peptide F61G = molecular target: T6, ApoC3 peptide F61G (human, cyclic (thioether))
T6 peptide: DKGSEFWDLDPEV
Method in brief: as §1

ApoC3 peptide W65G = molecular target: T7, ApoC3 peptide W65G (human, not fully specified; cyclic (thioether))
T7 peptide: DKFSEFGDLDPEV
Method in brief: as §1

ApoC3 peptide D68G = molecular target: T8, ApoC3 peptide D68G (human, cyclic (thioether))
T8 peptide: DKFSEFWDLGPEV
Method in brief: as §1

ApoC3 peptide P69G = molecular target: T9, ApoC3 peptide P69G (human, not fully specified; cyclic (thioether))
T9 peptide: DKFSEFWDLDGEV
Method in brief: as §1

ApoC3 peptide W65H = molecular target: T10, ApoC3 peptide W65H (human, cyclic (thioether))
T10 peptide: DKFSEFHDLDPEV
Method in brief: as §1

ApoC3 peptide D59I = molecular target: T11, ApoC3 peptide D59I (human, thioether (positions not given here); not fully specified (C-terminus, bridges))
T11 peptide: IKFSEFWDLDPEV
Method in brief: as §1

ApoC3 peptide W65I = molecular target: T12, ApoC3 peptide W65I (human, cyclic (thioether))
T12 peptide: DKFSEFIDLDPEV
Method in brief: as §1

ApoC3 peptide L67I = molecular target: T13, ApoC3 peptide L67I (human, thioether (positions not given here); not fully specified (bridges); also: thioether between a C-terminal Cys side chain and a modified N-terminus, the Cys is not in the chain)
T13 peptide: DKFSEFWDIDPEV
Method in brief: as §1

ApoC3 peptide D68I = molecular target: T14, ApoC3 peptide D68I (human, cyclic (thioether))
T14 peptide: DKFSEFWDLIPEV
Method in brief: as §1

ApoC3 peptide V71I = molecular target: T15, ApoC3 peptide V71I (human, thioether (positions not given here); also: cyclic (thioether), ring places not given here)
T15 peptide: DKFSEFWDLDPEI
Method in brief: as §1

ApoC3 peptide W65K = molecular target: T16, ApoC3 peptide W65K (human, cyclic (thioether))
T16 peptide: DKFSEFKDLDPEV
Method in brief: as §1

ApoC3 peptide P69K = molecular target: T17, ApoC3 peptide P69K (human, not fully specified; cyclic (thioether))
T17 peptide: DKFSEFWDLDKEV
Method in brief: as §1

ApoC3 peptide K60L = molecular target: T18, ApoC3 peptide K60L (human, cyclic (thioether))
T18 peptide: DLFSEFWDLDPEV
Method in brief: as §1

ApoC3 peptide E63L = molecular target: T19, ApoC3 peptide E63L (human, cyclic (thioether))
T19 peptide: DKFSLFWDLDPEV
Method in brief: as §1

ApoC3 peptide D59M = molecular target: T20, ApoC3 peptide D59M (human, thioether (positions not given here); not fully specified (C-terminus, bridges))
T20 peptide: MKFSEFWDLDPEV
Method in brief: as §1

ApoC3 peptide F61M = molecular target: T21, ApoC3 peptide F61M (human, cyclic (thioether))
T21 peptide: DKMSEFWDLDPEV
Method in brief: as §1

ApoC3 peptide L67M = molecular target: T22, ApoC3 peptide L67M (human, thioether (positions not given here); not fully specified (bridges); also: thioether between a C-terminal Cys side chain and a modified N-terminus, the Cys is not in the chain)
T22 peptide: DKFSEFWDMDPEV
Method in brief: as §1

ApoC3 peptide V71N = molecular target: T23, ApoC3 peptide V71N (human, thioether (positions not given here); also: cyclic (thioether), ring places not given here)
T23 peptide: DKFSEFWDLDPEN
Method in brief: as §1

ApoC3 peptide D59P = molecular target: T24, ApoC3 peptide D59P (human, thioether (positions not given here); not fully specified (C-terminus, bridges); also: cyclised via thioether between a C-terminal Cys and a modified N-terminus, the Cys and the N-terminal …)
T24 peptide: PKFSEFWDLDPEV
Method in brief: as §1

ApoC3 peptide K60Q = molecular target: T25, ApoC3 peptide K60Q (human, cyclic (thioether))
T25 peptide: DQFSEFWDLDPEV
Method in brief: as §1

ApoC3 peptide D59R = molecular target: T26, ApoC3 peptide D59R (human, thioether (positions not given here); not fully specified (C-terminus, bridges); also: cyclised via thioether between a C-terminal Cys and a modified N-terminus, the Cys and the N-terminal …)
T26 peptide: RKFSEFWDLDPEV
Method in brief: as §1

ApoC3 peptide E63S = molecular target: T27, ApoC3 peptide E63S (human, cyclic (thioether))
T27 peptide: DKFSSFWDLDPEV
Method in brief: as §1

ApoC3 peptide S62A = molecular target: T28, ApoC3 peptide S62A (human, not fully specified; cyclic (thioether))
T28 peptide: DKFAEFWDLDPEV
Method in brief: as §1

ApoC3 peptide D66A = molecular target: T29, ApoC3 peptide D66A (human, not fully specified; cyclic (thioether))
T29 peptide: DKFSEFWALDPEV
Method in brief: as §1

ApoC3 peptide E63C = molecular target: T30, ApoC3 peptide E63C (human, not fully specified; cyclic (thioether))
T30 peptide: DKFSCFWDLDPEV
Method in brief: as §1

- % of binding to wild-type peptide (ApoC3 peptide W65C): 0.08%
- % of binding to wild-type peptide (ApoC3 peptide D66C): 10.3%
- % of binding to wild-type peptide (ApoC3 peptide S62E): 0%
- % of binding to wild-type peptide (ApoC3 peptide L67E): 0.45%
- % of binding to wild-type peptide (ApoC3 peptide P69E): 43%
- % of binding to wild-type peptide (ApoC3 peptide F61G): 0.74%
- % of binding to wild-type peptide (ApoC3 peptide W65G): 0%
- % of binding to wild-type peptide (ApoC3 peptide D68G): 3.59%
- % of binding to wild-type peptide (ApoC3 peptide P69G): 24.6%
- % of binding to wild-type peptide (ApoC3 peptide W65H): 0%
- % of binding to wild-type peptide (ApoC3 peptide D59I): 49.1%
- % of binding to wild-type peptide (ApoC3 peptide W65I): 0%
- % of binding to wild-type peptide (ApoC3 peptide L67I): 46.9%
- % of binding to wild-type peptide (ApoC3 peptide D68I): 0%
- % of binding to wild-type peptide (ApoC3 peptide V71I): 66%
- % of binding to wild-type peptide (ApoC3 peptide W65K): 0%
- % of binding to wild-type peptide (ApoC3 peptide P69K): 20.7%
- % of binding to wild-type peptide (ApoC3 peptide K60L): 107%
- % of binding to wild-type peptide (ApoC3 peptide E63L): 10.1%
- % of binding to wild-type peptide (ApoC3 peptide D59M): 57.7%
- % of binding to wild-type peptide (ApoC3 peptide F61M): 68.7%
- % of binding to wild-type peptide (ApoC3 peptide L67M): 12.5%
- % of binding to wild-type peptide (ApoC3 peptide V71N): 86.6%
- % of binding to wild-type peptide (ApoC3 peptide D59P): 69.3%
- % of binding to wild-type peptide (ApoC3 peptide K60Q): 178%
- % of binding to wild-type peptide (ApoC3 peptide D59R): 43.3%
- % of binding to wild-type peptide (ApoC3 peptide E63S): 47.9%
- % of binding to wild-type peptide (ApoC3 peptide S62A): 29.6%
- % of binding to wild-type peptide (ApoC3 peptide D66A): 0%
- % of binding to wild-type peptide (ApoC3 peptide E63C): 2.3%
B1: Llama antibody 5E5 (antibody, V domains shown)
VH: QLQLVESGGGLVQPGGSLRLSCAASGFTFGTYSMRWVRQVPRKALEWVSSISTDGGGTAYRDSVKGRFTISRDNAKNTLYLQMNNLKPEDTAIYYCVIAGYSDWGQGTQVTVSS
VL: ATMLTQSPGSLSVVPGESASISCKTSQGLVHSDGKTYFYWFLQKPGQSPQQLIYQVSNRASGVPDRFTGSGSGTDFTLKISGVKAEDAGVYYCAQGTYYPHTFGSGTRLEIK
notes: detected with goat anti-human IgG (Fc); also called mAb 5E5
